From patent US20240374744

B1: cathepsin H (enzyme, UniProt P09668 116-335, looked up, species assumed)
Cathepsin H: YPPSVDWRKKGNFVSPVKNQGACGSCWTFSTTGALESAIAIATGKMLSLAEQQLVDCAQDFNNHGCQGGLPSQAFEYILYNKGIMGEDTYPYQGKDGYCKFQPGKAIGFVKDVANITIYDEEAMVEAVALYNPVSFAFEVTQDFMMYRTGIYSSTSCHKTPDKVNHAVLAVGYGEKNGIPYWIVKNSWGPQWGMNGYFLIERGKNMCGLAACASYPIPLV
B2: PrCP (prolylcarboxypeptidase) (enzyme, UniProt P42785 46-496, looked up, species assumed)
Lysosomal Pro-X carboxypeptidase: KNYSVLYFQQKVDHFGFNTVKTFNQRYLVADKYWKKNGGSILFYTGNEGDIIWFCNNTGFMWDVAEELKAMLVFAEHRYYGESLPFGDNSFKDSRHLNFLTSEQALADFAELIKHLKRTIPGAENQPVIAIGGSYGGMLAAWFRMKYPHMVVGALAASAPIWQFEDLVPCGVFMKIVTTDFRKSGPHCSESIHRSWDAINRLSNTGSGLQWLTGALHLCSPLTSQDIQHLKDWISETWVNLAMVDYPYASNFLQPLPAWPIKVVCQYLKNPNVSDSLLLQNIFQALNVYYNYSGQVKCLNISETATSSLGTLGWSYQACTEVVMPFCTNGVDDMFEPHSWNLKELSDDCFQQWGVRPRPSWITTMYGGKNISSHTNIVFSNGELDPWSGGGVTKDITDTLVAVTISEGAHHLDLRTKNALDPMSVLLARSLEVRHMKNWIRDFYDSAGKQH

Tested on: huHF(+)-DOX (huHF(+) protein nanoparticle-doxorubicin conjugate)
Sequence (chain, as listed by the source): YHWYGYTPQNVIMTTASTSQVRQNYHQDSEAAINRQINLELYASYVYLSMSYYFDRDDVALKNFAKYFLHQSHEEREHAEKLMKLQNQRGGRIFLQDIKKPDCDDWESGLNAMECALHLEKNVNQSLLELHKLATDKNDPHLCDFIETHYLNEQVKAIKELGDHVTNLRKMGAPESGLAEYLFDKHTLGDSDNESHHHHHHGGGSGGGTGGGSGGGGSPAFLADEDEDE

Row | Protein | cleavage of the conjugate and release of doxorubicin (native-PAGE, UV absorbance), enzyme in LPM mixture
1 | B1 | it was observed that the peptide was not specifically cleaved thereby the drug was not selectively released
2 | B2 | it was observed that the peptide was not specifically cleaved thereby the drug was not selectively released
